Experimental findings from publication PMC4027161 (Nucleic Acids Research, 2014) are described below.

Numbering of substitutions follows the chain as printed.

T1: monomeric form of PCNA2 (PCNA2m, R75A-F111E-R143A) (Thermococcus kodakarensis, UniProt Q5JFD3 1-253, R75A | F111E | R143A)
T1 sequence: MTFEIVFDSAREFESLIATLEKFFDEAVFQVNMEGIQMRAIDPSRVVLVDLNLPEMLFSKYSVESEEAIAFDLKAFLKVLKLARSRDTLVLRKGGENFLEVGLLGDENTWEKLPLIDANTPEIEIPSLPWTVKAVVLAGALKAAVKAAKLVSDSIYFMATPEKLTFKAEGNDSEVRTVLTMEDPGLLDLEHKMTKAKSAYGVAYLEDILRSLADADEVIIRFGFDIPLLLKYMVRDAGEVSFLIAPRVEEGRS

B1: Thermococcus kodakarensis PCNA2 (TK0582) (natural protein)
chain: T1 sequence with A75R, E111F, A143R
B2: Thermococcus kodakarensis PCNA1 (TK0535) (natural protein, UniProt Q5JF32 1-249, looked up)
chain: MPFEVVFDGAKEFADLIATASNLIDEAAFKFTEEGISMRAMDPSRVVLIDLNLPESIFSKYEVEEPETIGINMDQFKKILKRGKAKDTLILRKGDENFLEITFEGTAKRTFRLPLIDVEELELELPELPFTAKVVLLGEVLKEGIKDASLVSDAIKFIAKENEFTMKAEGETNEVEIRLTLEDEGLLDLEVEEETKSAYGIRYLSDMVKGIGKADEVILRFGNEMPLQMEYMIRDEGRLTFLLAPRVEE
B3: Thermococcales inhibitor of PCNA (TIP), encoded by TK0808 (natural protein, Thermococcus kodakarensis, UniProt Q5JH72 1-64, looked up)
chain: MDRKLDEFIGDATPKKVSKEKPVRRKKRLKPTSLDSFLPEEHINYFRDLRIGSKKIRNAKIEEL
B4: Methanothermobacter thermautotrophicus PCNA (mtPCNA) (natural protein, UniProt O27367 1-244, looked up)
chain: MFKAELNDPNILRTSFDAISSIVDEVQIQLSAEGLRLDALDRSHITYVHLELKAELFDEYVCDEPERINVDTEELMKVLKRAKANDRVILSTDEGNLIIQFEGEAVRTFKIRLIDIEYETPSPPEIEYENEFEVPFQLLKDSIADIDIFSDKITFRVDEDRFIASAEGEFGDAQIEYLHGERIDKPARSIYSLDKIKEMLKADKFSETAIINLGDDMPLKLTLKMASKEGELSFLLAPRIEAEE

Data set [1] deals with the molecule itself. Briefly: SEC; Superdex-200 (HR10/30); 100 ug of each protein in 200 ul of 25 mM Tris-HCl pH 8.0, 200 mM NaCl, 0.5 mM EDTA, 10% glycerol; fractions on SDS-PAGE, Coomassie.
For data set [2], the target named is T1, monomeric form of PCNA2 (PCNA2m, …). The data set is described as above. The conditions noted are these: both partners purified.
The target of data set [3] is B1. Nature of the data set: HDX-MS; 15 uM protein; PCNA monomer:TIP monomer 1:1, equilibrated at 4 C for 16 h; 20 mM sodium phosphate, 500 mM NaCl, pH 7.6; exchange at 3 C, 30 s to 60 min; pepsin digestion. The conditions noted are these: both partners purified.
The target in data set [4] is B2. Nature of the data set: crystal structure; low resolution X-ray structure of the complex, unpublished observation. Conditions: both partners purified.

The stoichiometry N is the number of molecules, sites or subunits per partner or assembly.

As for B1, in data set [1], the “stoichiometry N” value was 3.

B2: the “stoichiometry N” value in data set [1] came to 3.

In the case of B3, the binding result in data set [2] and in data set [3] was “binds” in each case. Also, the “stoichiometry N” value in data set [4] was 1 TIP per PCNA monomer.

B4: the “stoichiometry N” value in data set [1] was 3.
